To fix the notation:
T1: BCMA (Homo sapiens (Human), UniProt Q02223 1-54, limits assumed)
T1 sequence: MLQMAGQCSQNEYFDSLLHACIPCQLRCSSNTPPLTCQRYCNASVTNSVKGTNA

B1: D-domain SEQ ID NO: 339 (designed binder)
chain: MGSWYGFKWYLATIKKHLEALGGSEAELALFETEIATFELWLQDYKGKGNPEVEALRKEAAAIRDELQAYRHN
B2: D-domain SEQ ID NO: 338 (designed binder)
chain: MGSWTTLKWRLAHIKQHLEALGGSEAELALFEYDIAHFEELLQYYKGKGNPEVEALRKEAAAIRDELQAYRHN
B3: D-domain SEQ ID NO: 325 (designed binder)
chain: MGSWISFKDNLAMIKEFLEALGGSEAELAVFEWYIATFEVELQDYKGKGNPEVEALRKEAAAIRDELQAYRHN
B4: D-domain SEQ ID NO: 326 (designed binder)
chain: MGSWHIFKDNLATIKAFLEALGGSEAELAVFEWYIAKFEEELQGYKGKGNPEVEALRKEAAAIRDELQAYRHN
B5: D-domain SEQ ID NO: 327 (designed binder)
chain: MGSWTSFKHGLAGIKRVLEALGGSEAELATFEWYIAQFERHLQAYKGKGNPEVEALRKEAAAIRDELQAYRHN
B6: D-domain SEQ ID NO: 324 (designed binder)
chain: MGSWVEFKHNLAWIKVTLEALGGSEAELAVFEYYIAQFEEQLQEYKGKGNPEVEALRKEAAAIRDELQAYRHN
B7: D-domain SEQ ID NO: 66 (designed binder)
chain: MGSWIEFQERLDAIFYRLHALGGSEAELAAFEKEIAAFESELQAYKGKGNPEVEDLRDAAATIRRQLQAYRHN
B8: D-domain SEQ ID NO: 68 (designed binder)
chain: MGSWYEFQSRLDAIFYRLFALGGSEAELAAFEKEIAAFESELQAYKGKGNPEVEKLREAAASIRTQLQAYRHN
B9: D-domain SEQ ID NO: 67 (designed binder)
chain: MGSWIEFQQRLDAIFYRLYALGGSEAELAAFEKEIAAFESELQAYKGKGNPEVENLRDMAAIIRKQLQAYRHN
B10: D-domain SEQ ID NO: 331 (designed binder)
chain: MGSWTNFKEGLAEIKRDLEALGGSEAELARFEYVIAVFEFRLQNYKGKGNPEVEALRKEAAAIRDELQAYRHN
B11: D-domain SEQ ID NO: 328 (designed binder)
chain: MGSWQSFKHALADIKINLEALGGSEAELAQFEYAIAVFEYRLQAYKGKGNPEVEALRKEAAAIRDELQAYRHN
B12: D-domain SEQ ID NO: 329 (designed binder)
chain: MGSWHTFKEALAQIKGELEALGGSEAELASFEYAIAVFEYRLQMYKGKGNPEVEALRKEAAAIRDELQAYRHN
B13: D-domain SEQ ID NO: 337 (designed binder)
chain: MGSWYSFKWTLARIKLELEALGGSEAELAYFENVIAHFEMELQSYKGKGNPEVEALRKEAAAIRDELQAYRHN
B14: D-domain SEQ ID NO: 336 (designed binder)
chain: MGSWYLFQSHLAHIKHHLEALGGSEAELAWFEFTIAGFEQELQHYKGKGNPEVEALRKEAAAIRDELQAYRHN
B15: D-domain SEQ ID NO: 63 (designed binder)
chain: MGSWSEFMNRLDAITYRLVALGGSEAELAAFEKEIAAFESELQAYKGKGNPEVELLRHYAAQIRDSLQAYRHN
B16: D-domain SEQ ID NO: 69 (designed binder)
chain: MGSWSEFIDRLDAITYRLFALGGSEAELAAFEKEIAAFESELQAYKGKGNPEVENLRWYAGVIREQLQAYRHN
B17: D-domain SEQ ID NO: 64 (designed binder)
chain: MGSWTEFMERLDAISYRLWALGGSEAELAAFEKEIAAFESELQAYKGKGNPEVEVLRDYAAIIRNSLQAYRHN
B18: D-domain SEQ ID NO: 65 (designed binder)
chain: MGSWAEFMDRLDAITYRLWALGGSEAELAAFEKEIAAFESELQAYKGKGNPEVEELRGYAAIIRSELQAYRHN
B19: D-domain SEQ ID NO: 49 (designed binder)
chain: MGSWTEFAWRLQAIHQRLQALGGSEAELAAFEKEIAAFESELQAYKGKGNPEVEELRVYAAKIRISLQAYRHN
B20: D-domain SEQ ID NO: 60 (designed binder)
chain: MGSWSEFAWRLEAIHQRLSALGGSEAELAAFEKEIAAFESELQAYKGKGNPEVESLRLFAAQIRENLQAYRHN
B21: D-domain SEQ ID NO: 62 (designed binder)
chain: MGSWTEFAWRLIAIDQRLMALGGSEAELAAFEKEIAAFESELQAYKGKGNPEVEILRELAAEIRFHLQAYRHN
B22: D-domain SEQ ID NO: 56 (designed binder)
chain: MGSWVEFAWRLTAIDQRLSALGGSEAELAAFEKEIAAFESELQAYKGKGNPEVENLRFYAAKIRSHLQAYRHN
B23: D-domain SEQ ID NO: 54 (designed binder)
chain: MGSWVEFSWRLEAIRQRLQALGGSEAELAAFEKEIAAFESELQAYKGKGNPEVESLRSYAARIRQELQAYRHN
B24: D-domain SEQ ID NO: 47 (designed binder)
chain: MGSWHEFAWRLQAINQRLNALGGSEAELAAFEKEIAAFESELQAYKGKGNPEVEELRHYAAHIRNGLQAYRHN
B25: D-domain SEQ ID NO: 45 (designed binder)
chain: MGSWHEFTWRLIAIQQRLEALGGSEAELAAFEKEIAAFESELQAYKGKGNPEVEELRAYAAGIRHHLQAYRHN
B26: D-domain SEQ ID NO: 46 (designed binder)
chain: MGSWREFAWRLVAINSRLKALGGSEAELAAFEKEIAAFESELQAYKGKGNPEVEELRHYAASIRDGLQAYRHN
B27: D-domain SEQ ID NO: 58 (designed binder)
chain: MGSWVEFAWRLTAIHTRLWALGGSEAELAAFEKEIAAFESELQAYKGKGNPEVESLRKYAAKIRKQLQAYRHN
B28: D-domain SEQ ID NO: 55 (designed binder)
chain: MGSWVEFSWRLEAIRQRLTALGGSEAELAAFEKEIAAFESELQAYKGKGNPEVEDLRKYAARIRGELQAYRHN
B29: D-domain SEQ ID NO: 50 (designed binder)
chain: MGSWIEFAWRLQAIHQRLDALGGSEAELAAFEKEIAAFESELQAYKGKGNPEVEDLREYAANIRDSLQAYRHN
B30: D-domain SEQ ID NO: 57 (designed binder)
chain: MGSWVEFAWRLEAIKQRLTALGGSEAELAAFEKEIAAFESELQAYKGKGNPEVEELRLYAAKIRRVLQAYRHN
B31: D-domain SEQ ID NO: 59 (designed binder)
chain: MGSWTEFAWRLEAINQRLQALGGSEAELAAFEKEIAAFESELQAYKGKGKPEVEALRAYAAKIRTRLQAYRHN
B32: D-domain SEQ ID NO: 51 (designed binder)
chain: MGSWHEFTWRLVAIQQRLQALGGSEAELAAFEKEIAAFESELQAYKGKGNPEVEELRKFAAKIRYELQAYRHN
B33: D-domain SEQ ID NO: 52 (designed binder)
chain: MGSWHEFTWRLIAIRERLFALGGSEAELAAFEKEIAAFESELQAYKGKGNPEVEELREYAASIRNMLQAYRHN
B34: D-domain SEQ ID NO: 61 (designed binder)
chain: MGSWNEFAWRLIAINQRLWALGGSEAELAAFEKEIAAFESELQAYKGKGNPEVESLRHFAANIRNDLQAYRHN
B35: D-domain SEQ ID NO: 48 (designed binder)
chain: MGSWNEFAWRLTAIEQRLMALGGSEAELAAFEKEIAAFESELQAYKGKGNPEVEELRHYAAGIRDNLQAYRHN
B36: D-domain SEQ ID NO: 44 (designed binder)
chain: MGSWYEFSWRLQAIHQRLNALGGSEAELAAFEKEIAAFESELQAYKGKGNPEVEELRAYAAGIRGALQAYRHN
B37: D-domain SEQ ID NO: 53 (designed binder)
chain: MGSWIEFSWRLEAIRQRLQALGGSEAELAAFEKEIAAFESELQAYKGKGNPEVESLRSYAARIRQELQAYRHN
B38: D-domain SEQ ID NO: 335 (designed binder)
chain: MGSWIIFKGYLAHIKHHLEALGGSEAELADFEFYIAIFEMELQKYKGKGNPEVEALRKEAAAIRDELQAYRHN
B39: D-domain SEQ ID NO: 330 (designed binder)
chain: MGSWTDFKTSLADIKAELEALGGSEAELAKFEYYIAIFEYRLQEYKGKGNPEVEALRKEAAAIRDELQAYRHN
B40: D-domain SEQ ID NO: 332 (designed binder)
chain: MGSWHTFKDGLAEIKSELEALGGSEAELAMFEYVIAIFEYRLQNYKGKGNPEVEALRKEAAAIRDELQAYRHN
B41: D-domain SEQ ID NO: 333 (designed binder)
chain: MGSWQFFKEHLASIKFWLEALGGSEAELAFFEDAIADFEYHLQNYKGKGNPEVEALRKEAAAIRDELQAYRHN
B42: D-domain SEQ ID NO: 334 (designed binder)
chain: MGSWTYFKEHLASIKFWLEALGGSEAELAFFEDAIAEFEKDLQYYKGKGNPEVEALRKEAAAIRDELQAYRHN

The target of this assay is T1, BCMA. Put plainly: ELISA, format not described. The arrangement: unit not given here. (In general: ELISA stands for enzyme-linked immunosorbent assay.)
Turning to B1, the ELISA_avg was 10.7. For B2 the value was 17.8; for B3, 7.16. In the case of B4 it was 3.47; in that of B5, 9.77.

For the molecule B6, the ELISA_avg stood at 15.8. For B7 the value was 18.6. For B8 the value was 14.1; for B9, 20. With B10, the ELISA_avg is 12.3.

The molecule B11 came in with an ELISA_avg of 13.7. In the case of B12 it was 6.76; in that of B13, 4.05; in that of B14, 7.69. Turning to B15, the ELISA_avg turned out to be 12.9. For B16 the value was 10.2; for B17, 9.87. For B18 the value was 10.8; for B19, 18.7; for B20, 18. As for B21, the ELISA_avg worked out at 8.55. In turn, B22 came in with an ELISA_avg of 8.43.

In turn, B23 had an ELISA_avg of 19.1. In turn, B24 registered an ELISA_avg of 13.1.

Regarding B25, the ELISA_avg is 17.1. For B26 the value was 9.66; for B27, 6.08; for B28, 21.3.

Consider B29, for which the ELISA_avg worked out at 19. In the case of B30 it was 8.9; in that of B31, 15.1; in that of B32, 19.5. B33 yielded an ELISA_avg of 13. For B34 the value was 11.5; for B35, 18.3. As to B36, the ELISA_avg is 9.49. For B37 the value was 9.92; for B38, 5.18; for B39, 18.8. For B40 the value was 10.7; for B41, 10.6. Regarding B42, the ELISA_avg is 6.6.

The record behind these values is patent US20250026849A1 (ARCELLX, published 2025).
